Reference: publication PMC9935901, “B-lymphoid tyrosine kinase-mediated FAM83A phosphorylation elevates pancreatic tumorigenesis through interacting with β-catenin” (Signal Transduction and Targeted Therapy, 2023)
“Also recorded” adds a separate entry of the source.

Key:
FAM83A expression = FAM83A expression after Wnt3a treatment in PANC-1 cells; type: cell-based, human
Description: Fig. 7 FAM83A is a direct downstream target of Wnt/β-catenin signaling and forms positive feedback in pancreatic cancer cells. a–d Representative western blotting images of the protein and mRNA levels of FAM83A after Wnt3a treatment for indicated concentrations and times in PANC-1 cells (n = 3). e, f The protein and mRNA levels of FAM83A after β-catenin knockdown in PANC-1 cells. Cell lysates were used for western blotting with the indicated antibodies (n = 3). g FAM83A gene promoter-reporter luciferase activity in HEK293T cells with or without β-catenin overexpression (left) and PANC-1 cells with or without β-catenin knockdown (right) (n = 6). h The schematic diagram of FAM83A gene promoter truncation and deletion generation. i PACN-1 cells were subjected to chromatin immunoprecipitation using antibodies against TCF4 and IgG, and the fold change of TCF/IgG was quantified (n = 3). j Predicted TCF4/LEF-binding sequence in the FAM83A gene promoter from the JASPAR website. k Schematic diagram of the generated luciferase report plasmids and the relative luciferase activity after transfection with the plasmids in HEK293T cells with or without Wnt3a treatment (n = 6). l A ChIP experiment was used to detect binding between the β-catenin-TCF4 complex and the predicted TCF/LEF-binding element in the FAM83A promoter (TBE1 and TBE2). […]

FAM83A localization = assay: FAM83A nuclear translocation upon Wnt3a treatment; type: cell-based; conditions: confocal microscopy, nucleo-plasmic separation; Wnt3a 100 ng/mL; HEK293T, PANC-1
Protocol: Protein interactions were analyzed by western blotting (n = 3). Scale bars: 10 µm. *P < 0.05; **P < 0.01; ***P < 0.001. Data were presented as mean ± SD
Protein interactions were analyzed by western blotting (n = 3). c The level of β-catenin ubiquitination with or without Flag-tagged FAM83A overexpression or BLK kinase knockdown after MG132 treatment in HEK293T cells. Cell lysates were used for IP and western blotting with the indicated antibodies (n = 3). d The level of β-catenin ubiquitination with or without Flag-tagged FAM83A, Y138A, or Y138D mutants overexpression after MG132 treatment in HEK293T cells. […] Cell lysates were used for IP and western blotting with the indicated antibodies (n = 3). f The localization of Flag-tagged FAM83A and its Y138A, Y138D mutants in HEK293T cells were analyzed with confocal microscopy. g The protein level of cytoplasmic and nuclear β-catenin in HEK293T cells with or without Flag-tagged FAM83A, Y138A, or Y138D mutants transfection and Wnt3a treatment. […]

[1] = tested on: β-catenin ubiquitination (HEK293T cells); assay: β-catenin ubiquitination in HEK293T cells; type: cell-based; conditions: GFP-fusion transfection, n = 3
β-catenin stability = assay: β-catenin protein stability upon CHX treatment in PANC-1 cells; type: cell-based, human; conditions: peptide treatment or GFP-fusion transfection, n = 3
Protocol: Fig. 8 Peptides disrupting FAM83A-β-catenin interaction inhibit Wnt/β-catenin signaling. a Identification of β-catenin binding α-helical peptide(s) in FAM83A DUF1669 (140aa–210aa) region. The secondary structure of the FAM83A DUF1669 (140aa–210aa) region was analyzed based on the PDB data (4urj). b The FaPC, FaP1, FaP2, and FaP3 fragments were constructed into pEGFP-C1 expression vector connection with a flexible linker ((GGGGS)n). The interactions between β-catenin and the four fragments were evaluated with Co-IP assays in HEK293T cells (n = 3). c, d The predicted docking model of FaP2, FaP3 with β-catenin 530–666 aa region. e, f Kinetic interactions of cell-penetrating peptide TAT-linked peptides with β-catenin was determined by surface plasmon resonance analyses. g Effect of CP-FaP2 and CP-FaP3 on β-catenin-FAM83A and β-catenin-TCF4 interactions in PANC-1 cells. Cells were treated with control (CP-FaPC), CP-FaP2, and CP-FaP3 (5 μM) for 24 hours. Cell lysates were used for IP and western blotting with the indicated antibodies (n = 3). h The schematic diagram of 7TGC plasmid construction and the fluorescence images of PANC-1 cells with control, CP-FaP2, and CP-FaP3 treatment. […]

[2] = tested on: β-catenin destruction complex; assay: Co-IP, β-catenin with AXIN1 and GSK3β in PANC-1 cells; type: cell-based, human; conditions: peptide treatment or GFP-fusion transfection, n = 3

Row | Molecule | FAM83A mRNA level (FAM83A expression) | FAM83A protein level (FAM83A expression; n = 3) | FAM83A nuclear translocation (FAM83A localization) | β-catenin ubiquitination [1] | stability of β-catenin (β-catenin stability) | assembly of β-catenin destruction complex [2]
1 | Wnt3a: Wnt agonist, Abcam ab153563 (protein, UniProt P56704 19-352, looked up) Protein Wnt-3a: SYPIWWSLAVGPQYSSLGSQPILCASIPGLVPKQLRFCRNYVEIMPSVAEGIKIGIQECQHQFRGRRWNCTTVHDSLAIFGPVLDKATRESAFVHAIASAGVAFAVTRSCAEGTAAICGCSSRHQGSPGKGWKWGGCSEDIEFGGMVSREFADARENRPDARSAMNRHNNEAGRQAIASHMHLKCKCHGLSGSCEVKTCWWSQPDFRAIGDFLKDKYDSASEMVVEKHRESRGWVETLRPRYTYFKVPTERDLVYYEASPNFCEPNPETGSFGTRDRTCNVSSHGIDGCDLLCCGRGHNARAERRREKCRCVFHWCCYVSCQECTRVYDVHTCK | elevated both the protein and mRNA levels of FAM83A in dose- and time-dependent manners | elevated both the protein and mRNA levels of FAM83A in dose- and time-dependent manners | FAM83A shifted from the cell cytoplasm to nucleus upon Wnt3a treatment; also recorded: increased the nuclear translocation of FAM83A |  |  | 
2 | GFP-FaP2: FaP2 fused with GFP via a flexible linker ((GGGGS)n), pEGFP-C1 expression vector, transfected (protein, left off: EGFP (from the vector pEGFP-C1), end not stated, kept, FaP2 fused with GFP via a flexible linker ((GGGGS)n), pEGFP-C1 expression vector, transfected) ASAEKPYLKEKSSATVYFQTVKHNNIRDLVRRCITRTSQVLVILMDVFTDVEIFCDILEAANKRGVFVCVLLDQGGVKLFQEMCDKVQISDSHLKNISIRSVEGEIYCAKSGRKFAGQIREKFIISDWRFVLSGSYSFTWLCGHVHRNILSKFTGQAVELFDEEFRHLYASSKPVMGLKSPRL |  |  |  | improved | decreased | improved
3 | GFP-FaP3: FaP3 fused with GFP via a flexible linker ((GGGGS)n), pEGFP-C1 expression vector, transfected (protein, left off: EGFP (from the vector pEGFP-C1), end not stated, kept, FaP3 fused with GFP via a flexible linker ((GGGGS)n), pEGFP-C1 expression vector, transfected) ASAEKPYLKEKSSATVYFQTVKHNNIRDLVRRCITRTSQVLVILMDVFTDVEIFCDILEAANKRGVFVCVLLDQGGVKLFQEMCDKVQISDSHLKNISIRSVEGEIYCAKSGRKFAGQIREKFIISDWRFVLSGSYSFTWLCGHVHRNILSKFTGQAVELFDEEFRHLYASSKPVMGLKSPRL |  |  |  | improved | decreased | improved
